{"source": "the RNAGym collection of RNA variant scans (doi:10.1093/nar/gkz1192)", "parents": {"B1": {"name": "CPEB3 Ribozyme (parent)", "chain": "UAACAGGGGGCCACAGCAGAAGCGUUCACGUCGCAGCCCCUGUCAGAUUCUGGUGAAUCUGCGAAUUCUGCUGUAUAUCUC"}}, "data": [{"variants_of": "B1", "test": "self-cleavage, relative activity (ratio to wild type); higher = more cleavage; in vitro, sequencing", "method_in_brief": "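Relative activity was defined as the cleaved/total read fraction for a variant divided by the same fraction for the unmutated ribozyme. CPEB3 self-cleaving ribozyme libraries were made by rounds of error-prone PCR, barcoded, and transcribed in vitro with T7 RNA polymerase for 5 hours at 37°C, and cleavage ran through transcription plus a 15 min DNase I step before EDTA. Illumina sequencing of template-switched reverse transcripts gave the reads, and DNA sequencing mapped the barcodes. Averages come from three batches, using variants with at least 5 reads.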", "values": [{"variant": "C23G C29G", "self-cleavage": 0.08}, {"variant": "C23G C29U", "self-cleavage": 0.36}, {"variant": "C23G C39U", "self-cleavage": 0.08}, {"variant": "C23G C62A", "self-cleavage": 0.29}, {"variant": "C23G G63U", "self-cleavage": 0.32}, {"variant": "C23G U25C", "self-cleavage": 0.28}, {"variant": "C23G U26A", "self-cleavage": 0.1}, {"variant": "C23G U26C", "self-cleavage": 0.25}, {"variant": "C23G U31C", "self-cleavage": 0.41}, {"variant": "C23G U41A", "self-cleavage": 0.1}, {"variant": "C23G U41C", "self-cleavage": 0.21}, {"variant": "C23G U43C", "self-cleavage": 0.25}, {"variant": "C23G U48C", "self-cleavage": 0.29}, {"variant": "C23G U49C", "self-cleavage": 0.16}, {"variant": "C23G U51A", "self-cleavage": 0.16}, {"variant": "C23G U51G", "self-cleavage": 0.5}, {"variant": "C23G U54A", "self-cleavage": 0.26}, {"variant": "C23G U54C", "self-cleavage": 0.28}, {"variant": "C23G U54G", "self-cleavage": 0.26}, {"variant": "C23G U58C", "self-cleavage": 0.21}, {"variant": "C23G U60A", "self-cleavage": 0.19}, {"variant": "C23G U60C", "self-cleavage": 0.07}, {"variant": "C23G U66C", "self-cleavage": 0.15}, {"variant": "C23G U67A", "self-cleavage": 0.25}, {"variant": "C23G U67C", "self-cleavage": 0.12}, {"variant": "C23G U69A", "self-cleavage": 0.12}, {"variant": "C23G U69C", "self-cleavage": 0.08}, {"variant": "C23G U72A", "self-cleavage": 0.04}, {"variant": "C23G U72C", "self-cleavage": 0.13}, {"variant": "C23G U74A", "self-cleavage": 0.28}, {"variant": "C23G U74C", "self-cleavage": 0.41}, {"variant": "C23G U78A", "self-cleavage": 0.32}, {"variant": "C23G U78C", "self-cleavage": 0.28}, {"variant": "C23G U80A", "self-cleavage": 0.47}, {"variant": "C23G U80C", "self-cleavage": 0.13}, {"variant": "C23U", "self-cleavage": 0.35}, {"variant": "C23U A28C", "self-cleavage": 0.43}, {"variant": "C23U A28G", "self-cleavage": 0.26}, {"variant": "C23U A28U", "self-cleavage": 0.23}, {"variant": "C23U A35G", "self-cleavage": 0.95}, {"variant": "C23U A35U", "self-cleavage": 0.16}, {"variant": "C23U A45C", "self-cleavage": 0.45}, {"variant": "C23U A45G", "self-cleavage": 0.25}, {"variant": "C23U A45U", "self-cleavage": 0.27}, {"variant": "C23U A47G", "self-cleavage": 0.18}, {"variant": "C23U A47U", "self-cleavage": 0.2}, {"variant": "C23U A56G", "self-cleavage": 0.31}, {"variant": "C23U A56U", "self-cleavage": 0.15}, {"variant": "C23U A57G", "self-cleavage": 0.31}, {"variant": "C23U A57U", "self-cleavage": 0.19}, {"variant": "C23U A64C", "self-cleavage": 0.09}, {"variant": "C23U A64G", "self-cleavage": 0.26}, {"variant": "C23U A64U", "self-cleavage": 0.16}, {"variant": "C23U A65G", "self-cleavage": 0.43}, {"variant": "C23U A75G", "self-cleavage": 0.27}, {"variant": "C23U A77G", "self-cleavage": 0.34}, {"variant": "C23U A77U", "self-cleavage": 0.23}, {"variant": "C23U C27U", "self-cleavage": 0.31}, {"variant": "C23U C29U", "self-cleavage": 0.21}, {"variant": "C23U C32U", "self-cleavage": 0.14}, {"variant": "C23U C34U", "self-cleavage": 0.36}, {"variant": "C23U C37U", "self-cleavage": 0.2}, {"variant": "C23U C38A", "self-cleavage": 0.16}, {"variant": "C23U C38U", "self-cleavage": 0.13}, {"variant": "C23U C39A", "self-cleavage": 0.19}, {"variant": "C23U C39U", "self-cleavage": 0.24}, {"variant": "C23U C44A", "self-cleavage": 0.38}, {"variant": "C23U C62G", "self-cleavage": 0.09}, {"variant": "C23U G24A", "self-cleavage": 0.22}, {"variant": "C23U G30A", "self-cleavage": 0.12}, {"variant": "C23U G46A", "self-cleavage": 0.06}, {"variant": "C23U G52A", "self-cleavage": 0.57}, {"variant": "C23U G55A", "self-cleavage": 0.24}, {"variant": "C23U G61A", "self-cleavage": 0.25}, {"variant": "C23U G61C", "self-cleavage": 0.11}, {"variant": "C23U G70A", "self-cleavage": 0.17}, {"variant": "C23U U25A", "self-cleavage": 0.14}, {"variant": "C23U U25C", "self-cleavage": 0.19}, {"variant": "C23U U26A", "self-cleavage": 0.24}, {"variant": "C23U U26C", "self-cleavage": 0.2}, {"variant": "C23U U31A", "self-cleavage": 0.23}, {"variant": "C23U U31C", "self-cleavage": 0.22}, {"variant": "C23U U41A", "self-cleavage": 0.12}, {"variant": "C23U U41C", "self-cleavage": 0.27}, {"variant": "C23U U43A", "self-cleavage": 0.34}, {"variant": "C23U U43C", "self-cleavage": 0.3}, {"variant": "C23U U43G", "self-cleavage": 0.11}, {"variant": "C23U U48C", "self-cleavage": 0.14}, {"variant": "C23U U49C", "self-cleavage": 0.28}, {"variant": "C23U U49G", "self-cleavage": 0.41}, {"variant": "C23U U51A", "self-cleavage": 0.2}, {"variant": "C23U U51C", "self-cleavage": 0.07}, {"variant": "C23U U54A", "self-cleavage": 0.31}, {"variant": "C23U U54C", "self-cleavage": 0.16}, {"variant": "C23U U54G", "self-cleavage": 0.31}, {"variant": "C23U U58A", "self-cleavage": 0.34}, {"variant": "C23U U60A", "self-cleavage": 0.26}, {"variant": "C23U U60C", "self-cleavage": 0.15}, {"variant": "C23U U66C", "self-cleavage": 0.15}, {"variant": "C23U U67A", "self-cleavage": 0.16}, {"variant": "C23U U67C", "self-cleavage": 0.28}, {"variant": "C23U U67G", "self-cleavage": 0.38}, {"variant": "C23U U69A", "self-cleavage": 0.1}, {"variant": "C23U U69C", "self-cleavage": 0.19}, {"variant": "C23U U72A", "self-cleavage": 0.22}, {"variant": "C23U U72C", "self-cleavage": 0.48}, {"variant": "C23U U72G", "self-cleavage": 0.1}, {"variant": "C23U U74A", "self-cleavage": 0.58}, {"variant": "C23U U74C", "self-cleavage": 0.76}, {"variant": "C23U U76A", "self-cleavage": 0.22}, {"variant": "C23U U76C", "self-cleavage": 0.4}, {"variant": "C23U U78C", "self-cleavage": 0.27}, {"variant": "C23U U80A", "self-cleavage": 0.28}, {"variant": "C23U U80G", "self-cleavage": 0.26}, {"variant": "G24A", "self-cleavage": 0.27}, {"variant": "G24A A28G", "self-cleavage": 0.25}, {"variant": "G24A A28U", "self-cleavage": 0.14}, {"variant": "G24A A35G", "self-cleavage": 0.38}, {"variant": "G24A A35U", "self-cleavage": 0.17}, {"variant": "G24A A45C", "self-cleavage": 0.36}, {"variant": "G24A A45G", "self-cleavage": 0.24}, {"variant": "G24A A45U", "self-cleavage": 0.25}, {"variant": "G24A A47G", "self-cleavage": 0.27}, {"variant": "G24A A47U", "self-cleavage": 0.21}, {"variant": "G24A A56G", "self-cleavage": 0.13}, {"variant": "G24A A56U", "self-cleavage": 0.37}, {"variant": "G24A A57C", "self-cleavage": 0.15}, {"variant": "G24A A57G", "self-cleavage": 0.15}, {"variant": "G24A A64G", "self-cleavage": 0.36}, {"variant": "G24A A64U", "self-cleavage": 0.28}, {"variant": "G24A A65G", "self-cleavage": 0.28}, {"variant": "G24A A75G", "self-cleavage": 0.32}, {"variant": "G24A A75U", "self-cleavage": 0.25}, {"variant": "G24A A77G", "self-cleavage": 0.23}, {"variant": "G24A A77U", "self-cleavage": 0.46}, {"variant": "G24A C27A", "self-cleavage": 0.18}, {"variant": "G24A C27U", "self-cleavage": 0.3}, {"variant": "G24A C29G", "self-cleavage": 0.21}, {"variant": "G24A C32A", "self-cleavage": 0.29}, {"variant": "G24A C37A", "self-cleavage": 0.17}, {"variant": "G24A C39U", "self-cleavage": 0.17}, {"variant": "G24A C40U", "self-cleavage": 0.1}, {"variant": "G24A C44U", "self-cleavage": 0.18}, {"variant": "G24A C62U", "self-cleavage": 0.18}, {"variant": "G24A C68A", "self-cleavage": 0.07}, {"variant": "G24A C71G", "self-cleavage": 0.09}, {"variant": "G24A C71U", "self-cleavage": 0.36}, {"variant": "G24A C81A", "self-cleavage": 0.16}, {"variant": "G24A G30A", "self-cleavage": 0.24}, {"variant": "G24A G36A", "self-cleavage": 0.15}, {"variant": "G24A G36U", "self-cleavage": 0.1}, {"variant": "G24A G42A", "self-cleavage": 0.12}, {"variant": "G24A G46A", "self-cleavage": 0.2}, {"variant": "G24A G52A", "self-cleavage": 0.21}, {"variant": "G24A G52U", "self-cleavage": 0.37}, {"variant": "G24A G53A", "self-cleavage": 0.53}, {"variant": "G24A G55A", "self-cleavage": 0.1}, {"variant": "G24A G61A", "self-cleavage": 0.19}, {"variant": "G24A G61C", "self-cleavage": 0.09}, {"variant": "G24A G63A", "self-cleavage": 0.37}, {"variant": "G24A G63C", "self-cleavage": 0.16}, {"variant": "G24A G73A", "self-cleavage": 0.14}, {"variant": "G24A G73C", "self-cleavage": 0.4}, {"variant": "G24A U25A", "self-cleavage": 0.26}, {"variant": "G24A U25C", "self-cleavage": 0.25}, {"variant": "G24A U26A", "self-cleavage": 0.16}, {"variant": "G24A U26C", "self-cleavage": 0.3}]}]}
